Legend:
[1] = target: CFP-tagged CD44 (human full length CD44s cDNA fused in frame into pECFP, expressed in MDA-MB231 cells) (human) (UniProt P16070); assay: FRET by acceptor photobleaching, confocal microscopy, MDA-MB231 cells coexpressing CFP-CD44 and YFP-OPN
[2] = target: CFP-tagged CD44 (human full length CD44s cDNA fused in frame into pECFP, expressed in MDA-MB231 cells) (human) (UniProt P16070); assay: FRET by acceptor photobleaching, CFP-CD44/YFP-OPN in MDA-MB231 cells, in the presence of blocking antibody to αvβ3 integrin
[3] = target: CFP-tagged CD44 (human full length CD44s cDNA fused in frame into pECFP, expressed in MDA-MB231 cells) (human) (UniProt P16070); assay: FRET by acceptor photobleaching, CFP-CD44/YFP-OPN in MDA-MB231 cells, in the presence of mutated OPN-R3 RNA aptamer (control)
[4] = target: CFP from CFP-empty plasmid (pECFP); assay: FRET by acceptor photobleaching; negative control, cotransfection of empty CFP and YFP plasmids in MDA-MB231 cells

Substance | FRET efficiency [1] | FRET efficiency [2] | FRET efficiency [3] | FRET efficiency [4]
YFP-tagged OPN (human OPN cDNA fused in frame into pEYFP, expressed in MDA-MB231 cells) (from UniProt P10451 17-314) (ligand) | 24.2% | 19.6% | 23.1% | –
YFP from YFP-empty plasmid (pEYFP) | – | – | – | 0.23%

From patent US20110190386A1
